Molecular target: the molecule itself
Test: crystal structure; H101N crystals by vapour diffusion (7-8% PEG 20,000, 50 mM MES pH 6.3), 1 mM MnCl2 added, quick soak in 33% (w/v) L-rhamnose or D-allose; data at 100 K; four molecules (Mol-A to Mol-D) forming the tetramer

B1: mutant P. stutzeri L-RhI with a substitution of His101 with Asn (H101N) (enzyme, Pseudomonas stutzeri)
chain: MAEFRIAQDVVARENDRRASALKEDYEALGANLARRGVDIEAVTAKVEKFFVAVPSWGVGTGGTRFARFPGTGEPRGIFDKLDDCAVIQQLTRATPNVSLNIPWDKADPKELKARGDALGLGFDAMNSNTFSDAPGQAHSYKYGSLSHTDAATRAQAVEHNLECIEIGKAIGSKALTVWIGDGSNFPGQSNFTRAFERYLSAMAEIYKGLPDDWKLFSEHKMYEPAFYSTVVQDWGTNYLIAQTLGPKAQCLVDLGHHAPNTNIEMIVARLIQFGKLGGFHFNDSKYGDDDLDAGAIEPYRLFLVFNELVDAEARGVKGFHPAHMIDQSHNVTDPIESLINSANEIRRAYAQALLVDRAALSGYQEDNDALMATETLKRAYRTDVEPILAEARRRTGGAVDPVATYRASGYRARVAAERPASVAGGGGII
  stoichiometry N: 4

— paper PMC3668531 (FEBS Open Bio, 2012)
